This passage reports ΔF (rate of Hsp90 binding, fluorescence increase) results from article PMC6208366.

In the test the target is IANBD-labeled Hsp90 M362C (human). Description: stopped-flow fluorescence; IANBD-labeled Hsp90 M362C (1 µM) mixed with equal volumes of FKBP51, FK1-FK2, FK2-TPR or buffer, pseudo-first-order, 37 °C, 25 mM sodium phosphate/300 mM NaCl pH 7.2; rates as fluorescence increase at 20 s.

B1: full-length human FKBP51 (natural protein)
chain: MTTDEGAKNNEESPTATVAEQGEDITSKKDRGVLKIVKRVGNGEETPMIGDKVYVHYKGKLSNGKKFDSSHDRNEPFVFSLGKGQVIKAWDIGVATMKKGEICHLLCKPEYAYGSAGSLPKIPSNATLFFEIELLDFKGEDLFEDGGIIRRTKRKGEGYSNPNEGATVEIHLEGRCGGRMFDCRDVAFTVGEGEDHDIPIGIDKALEKMQREEQCILYLGPRYGFGEAGKPKFGIEPNAELIYEVTLKSFEKAKESWEMDTKEKLEQAAIVKEKGTVYFKGGKYMQAVIQYGKIVSWLEMEYGLSEKESKASESFLLAAFLNLAMCYLKLREYTKAVECCDKALGLDSANEKGLYRRGEAQLLMNEFESAKGDFEKVLEVNPQNKAARLQISMCQKKAKEHNERDRRIYANMFKKFAEQDAKEEANKAMGKKTSEGVTNEKGTDSQAMEEEKPEGHV
Take B1: the ΔF (rate of Hsp90 binding, fluorescence increase) is 0.0021 s⁻¹.
